Reference: patent publication US20040248129A1, “Rhesus monkey, dog and feeret melanin-concentrating hormone type 1 receptor” (priority 2001, published 2004)
“And” between values parts separate entries of the source, which are not always exact repeats. Equal entries are not always repeated. Positions of bridges follow the written chain, without caps; N, C: chain ends. No end group written: not given here.

Tests used:
[1] = target: T1, rhesus MCH-1R (Macaca mulatta, UniProt Q8MJ89); assay: Radioligand binding to adherent HEK293T cells transfected with rhesus MCH-1R; parameters: species or system rhesus monkey
T1 construct: expressed in transfected cells; host or cells: HEK293T
Protocol: HEK293T cells were seeded into 24-well culture plates coated with poly-D-Lys at 1×10^5 cells/well and were cultured during over-night. The adherent cells were transfected with pEF1/V5-HisB/rhesus MCH-1R plasmid (see Example 2). Forty-eight hours after transfection, the transfected monolayer cells were rinsed with the assay buffer (Hanks' balanced salt solution containing 20 mM HEPES, 0.2% BSA and 100 μg/ml bacitracin, pH 7.4). The cells were then incubated in 250 μl well of the same buffer with [^125I]-MCH (100 pM, NEN Life Science Products, Boston, Mass.) or [^125I]-[Phe^13,Tyr^19]-MCH (100 pM, NEN Life Science Products) for 30 minutes at 37° C. After the incubation, the cells were washed three times with the ice cold assay buffer and lysed with 500 μl/well of 2 M NaOH. The lysates were transferred into test tubes and the cell- bound radioactivity was measured by a COBLA Quantum γ-counter (Packard Instrument, Meriden, CT). Nonspecific binding was defined in the presence of 1 μM cold MCH or [Phe^13,Tyr^19]-MCH for the corresponding radio ligands.

[2] = test system: mock transfected cells (HEK293T); assay: Radioligand binding to mock transfected HEK293T cells; parameters: species or system human
[3] = target: T1, rhesus MCH-1R; assay: Intracellular calcium (fura-2) in HEK293T cells transiently expressing rhesus MCH-1R; format: cell-based, rhesus monkey; conditions: read-out: EC50, increase in intracellular calcium levels
Description: The entire coding sequence of rhesus MCH-1R was cloned into EcoRI-NotI site of pEF1lV5-HisB plasmid vector (Invitrogen, Carlsbad, Calif.). The resultant construct was transfected into HEK293T cells using LipofectAmine PLUS (Life Technologies, Rockville, Md.) according to the manufacture's instructions. Human embryonic kidney cells constitutively expressing SV40 large T antigen (HEK-293T) were maintained in Dulbecco's modified Eagle medium (Life Technologies) supplemented with 10% fetal bovine serum, 100 units/ml penicillin-G and 100 μg/ml streptomycin at 37° C. with 5% CO2 in a humidified atmosphere.
The intracellular calcium ion concentration ([Ca^2+]i) was measured fluorometrically using a Ca^2+-sensitive fluorescent dye, fura-2. HEK293T cells transiently transfected with pEF1N5-HisB plasmid vector harboring rhesus MCH-1R cDNA were harvested by phosphate-buffered saline containing 2 mM EDTA 48 hours after transfection, and washed once with the assay buffer (Hanks' balanced salt solution containing 20 mM HEPES and 0.1% BSA, pH 7.4). […] Data were analyzed using the software GraphPad Prism Version 3.0 (GraphPad Software, Inc., San Diego, Calif., USA).

[4] = target: T1, rhesus MCH-1R; assay: Inhibition of [125I]-MCH binding to rhesus MCH-1R expressed on HEK293T cells (filtration); parameters: species or system rhesus monkey; conditions: 100 pM [125I]-MCH, 4×10^5 cells/tube, 30 min, 37° C.
Protocol: (§1) HEK293T cells transfected with pEF1IV5-HisB/MCH1R plasmid were harvested by phosphate-buffered saline containing 2 mM EDTA 48 hours after transfection, and washed once with the assay buffer (Hanks' balanced salt solution containing 20 mM HEPES, 0.2% BSA and 100 μg/ml bacitracin, pH 7.4). The cells (4×10^5 cells/tube) were then incubated in 250 μl/tube of the same buffer with 100 pM […] for 30 minutes at 37° C. After the incubation, bound and free [^25I]-MCH were separated by filtration using a Unifilter GF/B glass filter (Packard Instrument) presoaked with 0.3% polyethylenimine. The remaining radioactivity on the filter was quantitated using a TopCount HTS (Packard instrument) with a Microscint 0 scintillation cocktail (Packard instrument). Specific binding was defined as the difference between total binding and nonspecific binding in the presence of 1 μM cold MCH. Data were analyzed using GraphPad Prism Version 3.0.

[5] = target: rhesus monkey MCH-1R (melanin-concentrating hormone type 1 receptor) (rhesus monkey) (UniProt Q8MJ89); assay: radioligand binding, 100 pM, HEK293T cells expressing rhesus MCH-1R, replicate 3
[6] = target: rhesus monkey MCH-1R (melanin-concentrating hormone type 1 receptor) (rhesus monkey) (UniProt Q8MJ89); assay: radioligand binding, 100 pM, in the presence of 1 uM cold [Phe13,Tyr19]-MCH, HEK293T cells expressing rhesus MCH-1R, replicate 3
[7] = target: rhesus monkey MCH-1R (melanin-concentrating hormone type 1 receptor) (rhesus monkey) (UniProt Q8MJ89); assay: radioligand binding, 100 pM, HEK293T cells expressing rhesus MCH-1R, replicate 2
[8] = target: rhesus monkey MCH-1R (melanin-concentrating hormone type 1 receptor) (rhesus monkey) (UniProt Q8MJ89); assay: radioligand binding, 100 pM, in the presence of 1 uM cold [Phe13,Tyr19]-MCH, HEK293T cells expressing rhesus MCH-1R, replicate 1
[9] = target: rhesus monkey MCH-1R (melanin-concentrating hormone type 1 receptor) (rhesus monkey) (UniProt Q8MJ89); assay: radioligand binding, 100 pM, in the presence of 1 uM cold [Phe13,Tyr19]-MCH, HEK293T cells expressing rhesus MCH-1R, replicate 2
[10] = target: rhesus monkey MCH-1R (melanin-concentrating hormone type 1 receptor) (rhesus monkey) (UniProt Q8MJ89); assay: radioligand binding, 100 pM, HEK293T cells expressing rhesus MCH-1R, replicate 1
[11] = target: T2, rhesus monkey MCH-1R (melanin-concentrating hormone type 1 receptor) (rhesus monkey, UniProt Q8MJ89 1-353); assay: displacement of 100 pM [125I]-MCH from HEK293T cells expressing rhesus MCH-1R, filtration
T2 construct: also called rhesus MCH-1R; Rhesus MCH-1R
Protocol: as §1, with “(4×10⁵” for “(4×10^5”, “[²⁵I]-MCH” for “[^25I]-MCH”
IC₅₀ values of MCH and [Phe¹³,Tyr¹⁹]-MCH in this experiment were calculated as 0.074 and 0.14 nM, respectively.

[12] = target: T2, rhesus monkey MCH-1R …; assay: cell-based or functional assay
[13] = target: T3, rhesus monkey MCH-1R (melanin-concentrating hormone type 1 receptor) (rhesus monkey), Q8MJ89; assay: displacement of 100 pM [125I]-MCH from HEK293T cells expressing rhesus MCH-1R, filtration
T3 chain: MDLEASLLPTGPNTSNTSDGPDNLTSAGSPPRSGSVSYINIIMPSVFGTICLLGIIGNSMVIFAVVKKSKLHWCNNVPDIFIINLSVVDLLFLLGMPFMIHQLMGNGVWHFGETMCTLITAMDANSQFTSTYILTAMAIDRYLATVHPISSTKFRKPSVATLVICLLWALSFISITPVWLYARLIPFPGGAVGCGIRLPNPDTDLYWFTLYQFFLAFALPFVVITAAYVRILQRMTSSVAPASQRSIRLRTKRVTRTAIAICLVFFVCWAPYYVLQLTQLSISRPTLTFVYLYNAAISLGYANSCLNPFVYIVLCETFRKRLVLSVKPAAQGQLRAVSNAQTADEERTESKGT

[14] = target: T3, rhesus monkey MCH-1R …; assay: cell-based or functional assay
[15] = Rhesus MCH-1R transfected HEK293T, 100 pM radioligand, 30 min, 37° C.
[16] = Mock transfected HEK293T, 100 pM radioligand

Molecule: [^125I]-MCH
- Binding to HEK293T cells expressing rhesus MCH-1R (in words) ([1]; 100 pM radioligand): bound to the HEK293T cells expressing rhesus MCH-1R with good windows
- [125I]-MCH binding, Total binding [1, 15]: 2542.8 cpm and 2893.4 cpm and 2315.5 cpm
- Specific binding into mock transfected cells (in words) ([2]; 100 pM radioligand): Specific binding was not observed
- [125I]-MCH binding, Total binding [2, 16]: 209.9 cpm and 215.8 cpm and 239.8 cpm
- [125I]-MCH binding, Nonspecific binding ([2]; Mock transfected HEK293T, 100 pM radioligand in the presence of 1 μM cold MCH): 172.0 cpm and 180.9 cpm and 184.1 cpm

Molecule: CSCC[C@@H]1NC(=O)[C@@H](NC(=O)[C@H](CCCNC(=N)N)NC(=O)[C@H](CC(C)C)NC(=O)[C@H](CCSC)NC(=O)[C@H](CC(=O)O)NC(=O)[C@H](Cc2ccccc2)NC(=O)[C@@H](N)CC(=O)O)CSSC[C@@H](C(=O)N[C@@H](Cc2c[nH]c3ccccc23)C(=O)N[C@@H](CCC(N)=O)C(=O)N[C@H](C(=O)O)C(C)C)NC(=O)[C@@H]2CCCN2C(=O)[C@H](CCCNC(=N)N)NC(=O)[C@H](Cc2ccc(O)cc2)NC(=O)[C@H](C(C)C)NC(=O)[C@H](CCCNC(=N)N)NC(=O)CNC(=O)[C@H](CC(C)C)NC1=O [MCH, Melanin-concentrating hormone]
- EC50 [3]: 300 pM
- IC50 [4]: 74 pM

Molecule: [^125I]-[Phe^13,Tyr^19]-MCH (from UniProt P20382 147-165) (peptide)
- Total binding (cpm) [5]: 6350 cpm
- Nonspecific binding (cpm) [6]: 1030 cpm
- Total binding (cpm) [7]: 5540 cpm
- Nonspecific binding (cpm) [8]: 1520 cpm
- Nonspecific binding (cpm) [9]: 2020 cpm
- Total binding (cpm) [10]: 5350 cpm

Molecule: [^125I]-[Phe^13,Tyr^19]-MCH
- Binding to HEK293T cells expressing rhesus MCH-1R (in words) ([1]; 100 pM radioligand): bound to the HEK293T cells expressing rhesus MCH-1R with good windows
- [125I]-[Phe13,Tyr19]-MCH binding, Nonspecific binding ([1]; Rhesus MCH-1R transfected HEK293T, 100 pM radioligand in the presence of 1 μM cold [Phe13,Tyr19]-MCH): 1524.1 cpm and 2023.5 cpm and 1029.6 cpm
- [125I]-[Phe13,Tyr19]-MCH binding, Total binding [1, 15]: 5353.0 cpm and 5542.3 cpm and 6345.9 cpm
- Specific binding into mock transfected cells (in words) ([2]; 100 pM radioligand): Specific binding was not observed
- [125I]-[Phe13,Tyr19]-MCH binding, Total binding [2, 16]: 708.9 cpm and 663.3 cpm and 771.5 cpm
- [125I]-[Phe13,Tyr19]-MCH binding, Nonspecific binding ([2]; Mock transfected HEK293T, 100 pM radioligand in the presence of 1 μM cold [Phe13,Tyr19]-MCH): 539.7 cpm and 537.7 cpm and 557.8 cpm

B1: [Phe^13,Tyr^19]-MCH, unlabelled (peptide)
peptide: DFDMLRCMLGRVFRPCWQY
modifications: disulfide 7-16 (inferred)
notes: Only the new residues (Phe13, Tyr19) are printed; also called cold [Phe^13,Tyr^19]-MCH
- IC50 [11]: 140 pM
- increase in intracellular calcium levels (fura-2) in HEK293T cells transiently expressing rhesus MCH-1R, EC50 [12]: 1100 pM

B2: MCH (melanin-concentrating hormone), unlabelled, P20382 147-165 (peptide, UniProt P20382 147-165, looked up)
peptide: DFDMLRCMLGRVYRPCWQV
modifications: not checked
- IC50 [13]: 74 pM
- increase in intracellular calcium levels (fura-2) in HEK293T cells transiently expressing rhesus MCH-1R, EC50 [14]: 300 pM
